B1: ISL2 (parent)
chain: HYPFLGAMGDHSKKKPGTAMCVGC
B2: TOR1AIP2 (parent)
chain: YTSSQKVSPIQIDGAGRTWQDSDT

Variants of: B1
Experiment: protein stability index of a GFP-peptide fusion (GPS, HEK-293T) (PSI 1-6); higher = more stable
Conditions: c terminus: a fixed tail appended
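Note: lentivirally expressed fusions sorted by FACS into six bins by GFP to DsRed ratio, PSI derived from sequencing read proportions per bin multiplied by bin number.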

Variant | protein stability index
G6W | 1.75
G6D | 3.2
G6L | 2.07
G6H | 2.46
G6R | 2.13
G6Y | 2.49
G6F | 1.86
G6T | 2.81
G6C | 3.15
G6K | 2.92
G6N | 2.54
G6A | 3.07
G6V | 1.93
G6P | 2.83
G6S | 2.32
G6M | 2.07
G6I | 2.27
G6E | 3.16
G6Q | 2.81
H11E | 3.44
H11F | 2.19
H11R | 2.92
H11T | 2.45
H11I | 2.33

Variant | protein stability index
H11S | 2.35
H11Q | 3.25
H11A | 2.69
H11D | 3.5
H11M | 2.74
H11Y | 1.99
H11K | 2.9
H11L | 2.21
H11W | 1.93
H11V | 2.39
H11G | 2.81
H11C | 2.64
H11N | 2.92
H11P | 3.16
S12A | 2.53
S12C | 3.95
P3M | 2.18
P3S | 2.27
P3Q | 3.11
P3G | 3.08
P3F | 1.93
P3N | 2.5
P3I | 2.26
P3C | 2.84

Variant | protein stability index
P3R | 2.35
P3W | 1.76
P3Y | 1.69
P3D | 1.96
P3K | 2.15
P3V | 2.06
P3L | 1.77
P3H | 2.31
P3A | 2.32
P3E | 3.04
P3T | 2.04
H1N | 3.84
H1D | 3.15
H1G | 2.64
H1A | 3.6
H1E | 2.05
H1S | 2.58
H1K | 2.62
H1W | 2.59
H1P | 2.75
H1I | 1.95
H1Y | 1.99
H1T | 2.69
H1R | 2.7

Variant | protein stability index
H1M | 1.82
H1L | 2.01
H1V | 2.11
H1F | 2.02
H1C | 2.11
H1Q | 2.92
F4E | 4.72
F4D | 3.83
F4N | 3.38
F4T | 3.19
F4L | 2.51
F4Q | 3.58
F4S | 3.48
F4H | 3.73
F4R | 2.89
F4K | 2.92
F4A | 3.75
F4W | 3.02
F4I | 3.03
F4M | 3.48
F4C | 3.27
F4Y | 2.21
F4G | 3.25
F4P | 3.34

Variant | protein stability index
F4V | 3.3
L5Q | 3.16
L5V | 2.63
L5G | 3.5
L5I | 3.14
L5F | 3.19
L5A | 3.15
L5C | 3.56
L5N | 2.49
L5K | 2.47
L5E | 3.78
L5W | 2.23
L5Y | 2.2
L5S | 3.1
L5H | 2.96
L5P | 3.13
L5M | 3.01
L5D | 3.75
L5T | 2.96
L5R | 2.66
Y2D | 4.76
Y2W | 2.16
Y2L | 3.37
Y2M | 2.97

Variant | protein stability index
Y2E | 3.62
Y2A | 3.43
Y2Q | 3.04
Y2V | 2.6
Y2P | 3.58
Y2F | 2.55
Y2T | 4.07
Y2H | 2.48
Y2R | 2.94
Y2S | 3.33
Y2I | 2.79
Y2K | 2.83
Y2N | 4.08
Y2G | 3.54
Y2C | 2.53
M8Q | 3.16
M8N | 2.94
M8Y | 2.51
M8R | 3.19
M8W | 2.17
M8P | 3.07
M8T | 2.82
M8K | 3
M8C | 3.33

Variant | protein stability index
M8I | 2.3
M8G | 3.85
M8L | 3.55
M8S | 2.52
M8V | 2.96
M8A | 4.25
M8E | 3.81
M8H | 2.8
M8F | 2.55
M8D | 3.52
A7W | 1.95
A7E | 3.79
A7Q | 3.22
A7G | 2.99
A7I | 1.9
A7Y | 1.84
A7N | 3.6
A7T | 2.93
A7H | 2.45
A7M | 2.31
A7L | 2.45
A7K | 2.86
A7R | 2.31
A7D | 3.68

Variant | protein stability index
A7C | 3.85
A7V | 2.37
A7F | 1.79
A7S | 2.74
A7P | 2.6
D10E | 3.69
D10Q | 1.78
D10Y | 1.56
D10W | 1.64
D10V | 1.7
D10K | 1.88
D10H | 2.52
D10T | 2.37
D10R | 2.07
D10F | 1.81
D10M | 1.79
D10A | 2.39
D10G | 2.18
D10I | 2.2
D10S | 2.86
D10C | 2.6
D10P | 2.35
D10L | 2.39
D10N | 2.07

Variant | protein stability index
G9C | 3.51
G9L | 2.4
G9T | 2.82
G9A | 3.37
G9W | 1.86
G9P | 2.96
G9R | 2.19
G9E | 3.58
G9F | 1.7
G9I | 1.95
G9V | 2.09
G9K | 2.52
G9S | 2.65
G9Y | 2.31
G9H | 3.05
G9D | 2.85
G9N | 2.58
G9M | 2.65
G9Q | 2.77

Variants of: B2
Experiment: as above
Conditions: c terminus: a fixed tail appended

Variant | protein stability index
T24R | 2.95
T24S | 3.85
T24D | 4.12
T24P | 3.55
T24M | 2.58
T24K | 3.29
T24V | 2.86
T24W | 2.87
T24Y | 2.17
T24C | 3.52
T24N | 3.15
T24E | 5
T24Q | 2.63
T24A | 3.08
T24H | 3.51
Q20H | 2.71
Q20N | 4.09
Q20A | 3.43
Q20D | 3.79
Q20W | 2.01
Q20S | 3.69
Q20V | 3.54
Q20E | 4.31
Q20L | 2.58
Q20F | 2.62

Variant | protein stability index
Q20G | 3.08
Q20Y | 2.84
Q20C | 3.34
Q20R | 2.62
Q20T | 3.03
Q20M | 2.75
Q20I | 2.42
Q20K | 3.16
Q20P | 2.69
D21Y | 2.43
D21V | 2.39
D21S | 2.95
D21N | 3.29
D21I | 2.71
D21K | 3.46
D21L | 2.46
D21T | 2.62
D21P | 2.81
D21R | 2.6
D21C | 2.85
D21H | 2.34
D21A | 2.73
D21F | 2.33
D21E | 3.27
D21Q | 2.45

Variant | protein stability index
D21M | 2.36
D21G | 2.62
D23R | 2.48
D23G | 2.72
D23I | 1.44
D23F | 2.04
D23A | 3.06
D23P | 2.64
D23T | 2.17
D23Y | 2.81
D23C | 2.83
D23Q | 3.41
D23N | 3.41
D23S | 2.73
D23H | 2.16
D23W | 1.55
D23K | 2.55
D23M | 2.06
W19T | 4.35
W19P | 4.67
W19S | 4.76
W19E | 4.86
W19C | 3.88
W19Y | 4.08
W19F | 3.92

Variant | protein stability index
W19A | 3.93
W19H | 4.09
W19G | 3.74
W19V | 4.56
W19R | 4.13
W19I | 3.96
W19K | 4.56
W19L | 4.11
W19D | 4.39
W19Q | 4.57
W19M | 4.34
W19N | 4.04
S22Q | 3.64
S22P | 3.67
S22R | 3.29
S22V | 3.17
S22I | 3.12
S22F | 2.71
S22E | 4.08
S22L | 2.35
S22A | 4.18
S22G | 2.74
S22C | 3.18
S22Y | 2.51
S22N | 3.55

Variant | protein stability index
S22H | 3.06
S22D | 4.55
S22W | 2.85
S22M | 2.18
S22K | 2.95
S22T | 3.63
T18E | 3.83
T18D | 4.01
T18K | 3.33
T18I | 2.63
T18F | 1.33
T18M | 2.42
T18N | 3.41
T18C | 2.9
T18G | 3.47
T18S | 2.87
T18V | 3.29
T18P | 3.38
T18R | 3.43
T18Q | 3.8
T18W | 2.3
T18Y | 2.74
T18L | 3

Source: the supplement of paper PMC10567573
